Measurements published in patent publication US11161912B2, “Heparanase-neutralizing monoclonal antibodies” (Technion Research & Development Foundation Limited, priority 2015, dated 2021).

Columns and labels:
U87 glioma cells = test: Matrigel cell invasion, U87 glioma cells; format: cell-based, human; details: mAb 2 μg, 6 h
Description: Cell invasion. Matrigel invasion assay was performed using modified Boyden chambers with polycarbonate Nucleopore membrane (Corning, Corning, N.Y.), essentially as described (17). Briefly, filters (6.5 mm in diameter, 8 μm pore-size) were coated with Matrigel (30 μl); Cells (2×10^5) in 100 μl of serum-free medium were seeded in triplicate on the upper part of each chamber, and the lower compartment was filled with 600 μl medium supplemented with 10% FCS. After incubation for 5 h at 37° C. in a 5% CO2 incubator, non-invading cells on the upper surface of the filter were wiped with a cotton swab, and migrated cells on the lower surface of the filter were fixed, stained with 0.5% crystal violet (Sigma) and counted by examination of at least seven microscopic fields.
FIG. 5A. Cell invasion. Cal-27 tongue carcinoma (left panels) and U87 glioma cells (right panels) (2×10^5) were plated onto Matrigel-coated filters in the presence of mouse IgM/IgG (upper panels), mAb 9E8 (2 μg; second left and middle panels). Invading cells adhering to the lower side of the membrane were visualized after 6 h. […] Lungs were harvested after 18 days, photographed (lower panel) and the number of metastatic lesions was counted (upper panel; p=0.001, 0.0006, 0.0001 for Con vs. Ab 1453, Con vs. mAb 9E8 and Con vs. SST0001, respectively). […]

Mouse B16 melanoma cells = test: B16 melanoma experimental lung metastasis; format: in vivo; details: C57Bl/6 mice, given with the cells: Ab #1453 250 μg, mAb 9E8 500 μg, SST0001 400 μg; lungs after 18 days
Description: Experimental metastasis. B16 BL6 mouse melanoma (2×10^5) or LM2-4 human breast cancer cells (2×10^6) were injected into the tail vein of C57/BL mice or SCID/Beige mice (respectively) together with the indicated compound, essentially as described (Hostettler N, et al. 2007, FASEB J 21(13):3562-3572). Lungs were harvested 18 days thereafter and metastases occurrence was determined following fixation by gross inspection and histology (Weissmann et al, 2016, Proc Natl Acad Sci USA 113:704-709).
FIG. 5A. Cell invasion. Cal-27 tongue carcinoma (left panels) and U87 glioma cells (right panels) (2×10^5) were plated onto Matrigel-coated filters in the presence of mouse IgM/IgG (upper panels), mAb 9E8 (2 μg; second left and middle panels). Invading cells adhering to the lower side of the membrane were visualized after 6 h. The number of invading cells per high power field is shown graphically at the lower panels. FIG. 5B, FIG. 5C. Tumor metastasis. FIG. 5B Mouse B16 melanoma cells (2×10^5) were inoculated into the tail vein of C57Bl/6 mice (n=7) together with rabbit IgG (300 μg; Con), Ab #1453 (250 μg), mAb 9E8 (500 μg) or SST0001 (400 μg). Lungs were harvested after 18 days, photographed (lower panel) and the number of metastatic lesions was counted (upper panel; p=0.001, 0.0006, 0.0001 for Con vs. Ab 1453, Con vs. mAb 9E8 and Con vs. SST0001, respectively). […]

B1: mAb 9E8: monoclonal IgM raised against KKDC peptide (Lys158-Asn171) of heparanase; VH SEQ ID NO: 7, VL SEQ ID NO: 8 (antibody)
VH: EVKLLESGGGLVQPGGSLKLSCAASGFDFSRYWMSWVRQAPGKGLEWIGEINPDSSTINYTPSLKDKFIISRDNAKNTLYLQMSKVRSEDTALYYCARRGYEGNYAMDYWGQGTSVTVSSESQSFPNVFPLVSCESPLSDKNLVAMGCLAR
VL: DIVMTQAAPSVPVTPGESVSISCRSSKSLLHSNGNTYLYWFLQRPGQSPQLLIYRMSNLASGVPDRFSGSGSGTAFTLRISRVEAEDVGVYYCMQHLEYPFTFGSGTKLEIKRADAAPTVSIFPPSSEQLTSGGASVVCFL
modifications: IgM constant regions
Q: For B1, which cell invasion (U87 glioma cells) is on record?
A: inhibitory effect

Q: What about the “experimental lung metastasis (number of metastatic lesions)” value (Mouse B16 melanoma cells) of the same molecule?
A: inhibitory effect
